Measured values from publication PMC9200344, “The Caenorhabditis elegans TDRD5/7-like protein, LOTR-1, interacts with the helicase ZNFX-1 to balance epigenetic signals in the germline” (PLoS Genetics, 2022).

What was measured:
[1] = molecular target: 3xFLAG::GFP::LOTR-1 with e+mLOTUS deletion (sam113) (C. elegans (endogenous in embryos and young adults)); experiment: affinity purification with mass spectrometry; anti-FLAG (M2) IP of 3xFLAG::GFP::LOTR-1 (wild type, LOTUS or Tudor deletion) on Protein G magnetic beads from embryo and young adult extracts, 4°C, washes with 300 mM NaCl; quantitative MS against the lotr-1 deletion expressing 3xFLAG::GFP alone
[2] = molecular target: 3xFLAG::GFP::LOTR-1 with Tudor deletion (sam102) (C. elegans (endogenous in embryos and young adults)); experiment: as above
3xFLAG::GFP::ZNFX-1 = molecular target: T1, 3xFLAG::GFP::ZNFX-1 (C. elegans (endogenous in embryos and …, UniProt E9P860 1-2443)); experiment: affinity purification with mass spectrometry; anti-FLAG IP of 3xFLAG::GFP::ZNFX-1 from embryos and adults of lotr-1(xf58) mutants (in-frame deletion that removes most of the LOTUS domain); quantitative MS compared with the wild-type background; details: partners not purified
T1 construct: ZNFX-1, Z-granule helicase, C. elegans; also called FLAG-tagged ZNFX-1; source: tagged ZNFX-1 expressed in worms, C. elegans embryo and young adult lysate
T1 sequence (E9P860 whole entry, the tested form may be a part): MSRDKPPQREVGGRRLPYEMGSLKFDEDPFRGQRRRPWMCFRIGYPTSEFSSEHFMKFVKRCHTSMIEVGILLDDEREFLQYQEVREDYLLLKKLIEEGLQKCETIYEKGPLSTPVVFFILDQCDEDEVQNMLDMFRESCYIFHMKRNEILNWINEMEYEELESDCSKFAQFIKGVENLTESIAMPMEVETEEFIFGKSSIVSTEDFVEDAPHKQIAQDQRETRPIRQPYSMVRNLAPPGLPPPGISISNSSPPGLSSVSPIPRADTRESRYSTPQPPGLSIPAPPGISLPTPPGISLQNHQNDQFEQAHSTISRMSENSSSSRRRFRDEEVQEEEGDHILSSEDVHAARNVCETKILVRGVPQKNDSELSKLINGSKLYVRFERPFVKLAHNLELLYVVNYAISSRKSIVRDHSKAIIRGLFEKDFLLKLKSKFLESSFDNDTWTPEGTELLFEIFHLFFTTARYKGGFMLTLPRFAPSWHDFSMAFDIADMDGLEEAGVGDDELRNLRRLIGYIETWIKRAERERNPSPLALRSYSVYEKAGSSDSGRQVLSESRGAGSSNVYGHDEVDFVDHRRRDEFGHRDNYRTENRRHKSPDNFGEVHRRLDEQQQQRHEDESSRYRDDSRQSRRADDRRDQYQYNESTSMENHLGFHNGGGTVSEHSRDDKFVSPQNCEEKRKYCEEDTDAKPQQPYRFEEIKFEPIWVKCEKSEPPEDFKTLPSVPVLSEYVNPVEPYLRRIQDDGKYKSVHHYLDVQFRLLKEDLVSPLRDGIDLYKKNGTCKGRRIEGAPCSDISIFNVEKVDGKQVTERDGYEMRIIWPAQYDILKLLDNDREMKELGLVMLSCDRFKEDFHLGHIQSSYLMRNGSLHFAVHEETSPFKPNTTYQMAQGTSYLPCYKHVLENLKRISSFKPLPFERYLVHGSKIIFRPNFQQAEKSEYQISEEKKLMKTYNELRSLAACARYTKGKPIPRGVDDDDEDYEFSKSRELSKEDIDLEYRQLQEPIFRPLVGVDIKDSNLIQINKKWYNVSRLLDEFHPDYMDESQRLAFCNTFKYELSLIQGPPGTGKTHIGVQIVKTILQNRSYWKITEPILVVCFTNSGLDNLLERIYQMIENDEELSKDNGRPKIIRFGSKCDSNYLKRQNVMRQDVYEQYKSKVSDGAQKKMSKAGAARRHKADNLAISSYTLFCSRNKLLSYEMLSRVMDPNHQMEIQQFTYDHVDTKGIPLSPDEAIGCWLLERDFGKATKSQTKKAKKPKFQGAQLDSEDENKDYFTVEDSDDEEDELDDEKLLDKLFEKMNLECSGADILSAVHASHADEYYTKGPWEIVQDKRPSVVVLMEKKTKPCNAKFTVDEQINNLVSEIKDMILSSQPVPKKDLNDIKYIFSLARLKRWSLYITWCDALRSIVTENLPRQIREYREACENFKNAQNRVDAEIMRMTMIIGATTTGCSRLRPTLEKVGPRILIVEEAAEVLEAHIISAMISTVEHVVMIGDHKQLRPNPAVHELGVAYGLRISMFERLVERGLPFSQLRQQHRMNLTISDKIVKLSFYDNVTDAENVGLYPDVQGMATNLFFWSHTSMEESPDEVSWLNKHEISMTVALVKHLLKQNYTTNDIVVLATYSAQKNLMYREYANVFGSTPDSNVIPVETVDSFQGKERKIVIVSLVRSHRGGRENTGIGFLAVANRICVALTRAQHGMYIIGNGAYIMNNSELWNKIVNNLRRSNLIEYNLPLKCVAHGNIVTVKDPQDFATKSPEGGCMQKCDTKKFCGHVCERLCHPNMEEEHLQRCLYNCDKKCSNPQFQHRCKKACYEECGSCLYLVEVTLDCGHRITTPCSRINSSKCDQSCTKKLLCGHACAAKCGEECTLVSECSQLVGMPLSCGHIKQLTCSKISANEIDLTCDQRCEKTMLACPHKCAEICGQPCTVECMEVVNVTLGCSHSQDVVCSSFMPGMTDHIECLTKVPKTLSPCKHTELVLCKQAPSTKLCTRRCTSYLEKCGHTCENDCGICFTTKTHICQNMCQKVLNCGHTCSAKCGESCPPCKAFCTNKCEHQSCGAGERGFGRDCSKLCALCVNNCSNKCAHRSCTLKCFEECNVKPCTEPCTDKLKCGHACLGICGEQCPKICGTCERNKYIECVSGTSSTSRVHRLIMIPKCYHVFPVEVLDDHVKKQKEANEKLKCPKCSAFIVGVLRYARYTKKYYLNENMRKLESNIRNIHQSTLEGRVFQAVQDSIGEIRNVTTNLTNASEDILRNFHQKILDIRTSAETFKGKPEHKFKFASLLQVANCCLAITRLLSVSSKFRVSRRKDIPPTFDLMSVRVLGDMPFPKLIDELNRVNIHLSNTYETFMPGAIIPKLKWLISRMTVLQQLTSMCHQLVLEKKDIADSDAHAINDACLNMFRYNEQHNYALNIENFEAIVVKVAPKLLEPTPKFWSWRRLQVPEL

fold change of association against wild-type LOTR-1 (embryos) [1] [fold]	percent reduction of association against wild-type LOTR-1 (embryos) [2] [%]	fold change of association in lotr-1(xf58) mutant adults against wild type (3xFLAG::GFP::ZNFX-1) [fold]	Molecule
2	90		MEG-3 (natural protein)
		2	MIP-2 (natural protein, C. elegans (endogenous in young adults), UniProt P90898 1-666, looked up, MIP-2, LOTUS-domain protein, C. elegans; source: endogenous, C. elegans young adult lysate) MSEEEGKEKMNKMRKRIERDAYSVLLSFKDGASPKQVEQRMDDTLGYDYCSKYHLAGVYDMAQILIEHPDVRQTYEGKFKIIANEDNQDLVDLISKQSDGPRNKGSSKRGRRSSSSAGYHQRSMFGGELSRSPRYSSCRPRSYASFGKAASKKLFQNFGQPSRPFSVLSSSKASTSSAIQSFGTGNHDSTFGKSSGSNANPTNPPVAPSIQRPLMRPSTASSIPIFILRSGSRSPVKKHVQIKTSSSSSHMPTITEFMNNTKRMMVKELPASVHLSEMTELYEREFGAPVDPLLLFSKSWMLMAKTTFKEFLQVIDGEVSLREKWLADQGTTTKSVLELPSRKVEATTVAQLPISQGFRYQDPNSKPKADLASISKSLDGLTLNARKSKKEASKSDMMPFIPKNHREIVTKRFGNAPSSVKADSIVERVQSTSCIFGRQSVPSVLSISSSSTVVPEKLNEEGLKYDSKELLQLKALKKTDVMLVNVYASLKAFPQMIDARAKALMQQNLEVQRNMASRASLNVVAQVQRPSSSINLQRVRVNPNQCVKKVVPVRTLGQALAEVRRQREQVEQEAFNEQPEPSPSPRLGMGSSSHAASNVSDDGWGAQVVQKVEKSPPKPFTVLLPPMSKGAGVKIRPRSRVVLCHSSASSFPPSLNSDFSPNISQA
